Experiments:
[1] = molecular target: integrin receptors on the angiogenic blood vessels in the tumor site; assay: cell-based or functional assay
CT26 tumors [2] = assay: Recruitment of P-aPD-1 to tumor, i.v. injected protein (systemic strategy); format: in vivo, mice
Experimental: (§1) Recruitment of P-aPD-1 by tTF-RGD treatment: The recruitment of P-aPD-1 to tumor sites by tTF-RGD-initiated coagulation was studied using IVIS. P-aPD-1 was reacted with sulfo-Cy5.5-NHS ester at room temperature for 1 h and washed three times with PBS to remove unreacted dyes. For the local treating strategy, BSA, tTF, and tTF-RGD were given at the dose of 0.4 mg/kg via p.t. injection to mice bearing CT26 tumors, followed by i.v. injection of approximately 1×10^8 P-aPD-1 (aPD-1:1 mg/kg). For the systemic treatment strategy, BSA, tTF, and tTF-RGD were given at the dose 1.25 mg/kg via i.v. injection to mice bearing CT26 tumors, followed by i.v. injection of approximately 1×10^8 P-aPD-1 (aPD-1:1 mg/kg). […] At 24 h, the mice were euthanized, and tumors were collected and visualized ex vivo.

CT26 tumors [3] = assay: Tumor coagulation by Cy5.5-labeled fibrinogen accumulation (IVIS); format: in vivo, mice
Experimental: To assess the tumor vasculature-coagulation triggered by tTF-RGD, fibrinogen was labeled with sulfo-Cy5.5-NHS ester and dialyzed against PBS to remove unreacted dyes. BSA, tTF or tTF-RGD were injected at the dose of 1.25 mg/kg via i.v. route to mice bearing CT26 tumors, followed by i.v. injection of 1 nmol of fibrinogen. […] At 24 h, the mice were euthanized, and tumors were collected and visualized ex vivo.

CT26 tumor-bearing mice [4] = assay: Coagulation initiation after intratumoral injection, CT26 tumors; format: in vivo
Experimental: (§2) The coagulation initiation capability of tTF-RGD was investigated by treating CT26 tumor-bearing mice with 1.25 mg/kg of BSA, tTF, and tTF-RGD via intratumoral injection. Twenty-four hours later, the tumors were collected and subjected to H&E staining. To characterize the coagulation triggered by a lower dose of the tTF-RGD, 0.4 mg/kg of BSA, tTF, and tTF-RGD were administered into CT26 tumor-bearing mice via p.t. injection. Furthermore, mice bearing CT26 tumors were also treated with BSA, tTF and tTF-RGD (1.25 mg/kg) via i.v. injection every other day for 3 times in total. Twenty-four hours post injection of the last dose, the tumors and other major organs were collected and subjected to H&E staining.

CT26 tumors [5] = tested on: CT26 tumors; parameters: species or system mice; settings: mouse, in vivo, iv, 1.25 mg/kg
Experimental: Tumor vasculature-targeting and coagulation initiating ability tTF-RGD: The tumor vasculature-targeting ability of tTF-RGD was investigated using IVIS. Briefly, tTF and tTF-RGD were labeled with sulfo-Cy5.5-NHS ester and dialyzed against PBS at 4° C. to remove unreacted dyes. Balb/C mice (6-8 weeks, male) were inoculated with 1×10^6 CT26 cells. When the tumor volumes reached 100-150 mm^3 (calculated as length×width^2×0.5), Cy5.5-labeled tTF or tTF-RGD were injected at the dose of 1.25 mg/kg via i.v. route to mice bearing CT26 tumors. […] At 24 h, the mice were euthanized, and tumors were collected and visualized ex vivo. The fluorescence was analyzed using Living Image Software v.4.3.1 (Perkin Elmer).

CT26 tumor-bearing mice [6] = assay: Coagulation after three i.v. doses, H&E of tumors and major organs; format: in vivo
Experimental: as §2

PDX breast tumors = assay: Recruitment of DiR-loaded PM-NP to PDX tumor (IVIS); format: in vivo, mice; settings: ex vivo, 24 h, i.v. 1.25 mg/kg
Experimental: Recruitment of PM-NP by tTF-RGD-triggered coagulation: The recruitment of PM-NP to tumor sites by tTF-RGD-initiated coagulation was studied using IVIS. NPs were loaded with DiR and coated with platelet membranes. The PM-NP was washed three times with PBS to remove unreacted dyes. tTF or tTF-RGD was given at the dose of 1.25 mg/kg via i.v. injection to mice bearing PDX breast tumors. One hour later, 2 mg of NPs and PM-NPs were administered via i.v. injection. […] At 24 h, the mice were euthanized, and tumors were collected and visualized ex vivo.

CT26 tumors [7] = assay: Recruitment of P-aPD-1 to tumor, p.t. injected protein (local strategy); format: in vivo, mice
Experimental: as §1

[8] = tested on: TM00096 human breast tumor PDX; assay: Coagulation in PDX tumors, H&E staining; format: in vivo, mice; settings: i.v. injection with PM-NP, 24 h
Description: Establishment of the PDX model: To establish the PDX model, TM00096 tumor samples were first propagated on Rag2-II2rg double knockout immunodeficient mice (R2G2® mice, 6-8 weeks, female) and then passaged to nude mice (6-8 weeks, female). Briefly, tumor tissues from R2G2® mice with TM00096 tumors were cut into small pieces, dispersed in the 1:1 mixture of DMEM medium and Matrigel® supplemented with FBS and antibiotics. The tiny tumor tissues were mixed well and placed on ice packs before being injected into the right flank of the nude mice using an 18-gauge needle (100 μL/mouse).
Next, it was determined if tTF-RGD can recruit PM-NP to tumor sites. To validate the translational potential of our treatment strategy, a clinically relevant PDX mouse model was established (FIG. 7C). TM00096 human breast tumor tissues were implanted on the flank of the immunodeficient mice. To affirm that systemic injection of tTF-RGD can initiate the tumor-selective coagulation on the PDX model, tTF+PM-NP or tTF-RGD+PM-NP were administered to the mice via i.v. injection as described above in the CT26-bearing mice model. Twenty-four hours later, the PDX tumors were collected and subjected to H&E staining. […] In order to visualize the tumor-selective accumulation of PM-NP, DiR dyes were encapsulated into NPs, which were further coated with platelet membranes. […]

CT26 subcutaneous tumor [9] = assay: Anti-tumor efficacy, subcutaneous CT26 model, local treating strategy; format: in vivo, Balb/C mice; settings: tTF or tTF-RGD p.t. 0.4 mg/kg, aPD-1 1 mg/kg i.v., 3 doses
Experimental: (§3) Anti-tumor efficacy of tTF-RGD+P-aPD-1: To establish a subcutaneous CT26 colon cancer model, Balb/C mice (6-8 weeks, male) were subcutaneously inoculated with 1×10^6 CT26 cells on the right flank. When the tumor volume reached100-150 mm^3, the mice were received different treatments, including saline, aPD-1, tTF-RGD, P-aPD-1, tTF+P-aPD-1 and tTF-RGD+P-aPD-1. For the local treating strategy, tTF or tTF-RGD (0.4 mg/kg) was firstly given by p.t. injection. Half an hour later, P-aPD-1 was administered via i.v. injection at the dose of 1 mg/kg. The treatment was conducted every other day for 3 times in total. For the systemic treating strategy, tTF or tTF-RGD (1.25 mg/kg) was first given by i.v. injection. One hour later, P-aPD-1 was administered via i.v. injection at the dose of 0.3 mg/kg. The treatment was conducted every other day for 3 times in total. The antibodies used in other treatment groups are also given at an equivalent dose. The tumor growth (calculated as: length×width^2×0.5) and body weight were monitored every other day. Mice were euthanized once the tumor volume exceeded 2 cm^3.

[10] = tested on: FX (proteolytic activation of FX by FVIIa); assay: FX activation assay; format: biochemical; settings: in the presence of factor VII (a) and Ca2+ ions
Experimental: The FX activation activity was tested using a modified procedure based on a previous report in the art. Briefly, to each well of a black 96-well plate was added 100 μL of BSA, tTF, and tTF-RGD with different concentrations in Tris-buffered saline containing 0.1% BSA. […] After 5 min of incubation at room temperature, FX (Haematologic Technologies, Inc.) was added to reach a final concentration of 30 nM and reacted for an additional 5 min. The reaction was quenched by addition of 20 μL of 100 mmol/L EDTA solution before 10 μL of 6-amino-1-naphthalenesulfonamide-based (ANSN) fluorogenic substrate (10 mM) (Haematologic Technologies, Inc.) was added to the mixture. Three minutes later, the fluorescence intensities were measured with a microplate reader (excitation=352 nm, emission=470 nm).

CT26 subcutaneous tumor [11] = assay: Anti-tumor efficacy, subcutaneous CT26 model, systemic treating strategy; format: in vivo, Balb/C mice; settings: tTF or tTF-RGD i.v. 1.25 mg/kg, aPD-1 0.3 mg/kg i.v., 3 doses
Experimental: as §3

CT26 tumor-bearing mice [12] = assay: Coagulation after p.t. injection of lower dose, CT26 tumors; format: in vivo; settings: 0.4 mg/kg
Experimental: as §2

Molecule: truncated tissue factor-Arg-Gly-Asp (RGD) fusion protein (tTF-RGD) (from UniProt P13726 33-250)
- mean fluorescence intensity (MFI) of tumor tissues ex vivo, 24 h after i.v. injection of Cy5.5-labeled protein, against the tTF group [1]: 1.62 fold

B1: tTF-RGD: fused protein of truncated tissue factor (extracellular domain of TF) and RGD motif; SEQ ID NO: 9 (protein)
chain: SGTTNTVAAYNLTWKSTNFKTILEWEPKPVNQVYTVQISTKSGDWKSKCFYTTDTECDLTDEIVKDVKQTYLARVFSYPAGNVESTGSAGEPLYENSPEFTPYLETNLGQPTIQSFEQVGTKVNVTVEDERTLVRRNNTFLSLRDVFGKDLIYTLYYWKSSSSGKKTAKTNTNEFLIDVDKGENYCFSVQAVIPSRTVNRKSTDSPVECMGQEKGEFRRGD
- accumulation of P-aPD-1 in tumor tissues, increase versus tTF group (CT26 tumors [2]; ex vivo, 24 h, protein i.v. 1.25 mg/kg): 1.89 fold
- Rhodamine B-labeled P-aPD-1 fluorescence in resected tumors compared to BSA and tTF (CT26 tumors [2]; i.v. injection): More fluorescence signals
- distribution of Cy5.5-labeled P-aPD-1 at tumor sites (imaging) compared to tTF and BSA (CT26 tumors [2]; protein i.v. 1.25 mg/kg then i.v. P-aPD-1, time-course): increased distribution of P-aPD-1 at the tumor sites
- accumulation of Cy5.5-fibrinogen in tumors (CT26 tumors [3]; 24 h post i.v. injections, protein 1.25 mg/kg): strong signals
- MFI of Cy5.5-fibrinogen in tumors, increase compared with tTF group (CT26 tumors [3]; ex vivo, 24 h, i.v. 1.25 mg/kg): 2.37 fold
- hemorrhage and thrombus formation in tumors (CT26 tumor-bearing mice [4]; 1.25 mg/kg, data not shown): significant hemorrhage and thrombus formation
- coagulation in tumors (CT26 tumor-bearing mice [4]; 24 h post-injection): severe coagulation
- mean fluorescence intensity (MFI) of tumor tissues relative to tTF group (CT26 tumors [5]): 1.62 fold
- tumor targeting ability, fluorescence signals at tumor site (CT26 tumors [5]): much stronger tumor targeting ability than tTF
- coagulation in tumor tissues (H&E) (CT26 tumor-bearing mice [6]; 24 h after three doses of i.v. injection, 1.25 mg/kg): initiated apparent coagulation
- hemorrhage or thrombus in other major organs (H&E) (CT26 tumor-bearing mice [6]; after 3 doses of i.v. injection): no obvious hemorrhage or thrombus in other major organs
- hemorrhage / thrombosis (CT26 tumor-bearing mice [6]; i.v. 1.25 mg/kg every other day for three times, data not shown): did not induce severe hemorrhage but could trigger thrombosis
- MFI of tumors, accumulation of PM-NP, increase versus tTF treatment (PDX breast tumors): 5.05 fold
- fluorescence signals of P-aPD-1 in tumor tissues, increase versus tTF group (CT26 tumors [7]; ex vivo, 24 h, protein p.t. 0.4 mg/kg): 1.87 fold
- Rhodamine B-labeled P-aPD-1 fluorescence in resected tumors compared to BSA and tTF (CT26 tumors [7]; p.t. injection): More fluorescence signals
- accumulation of Cy5.5-labeled P-aPD-1 at tumor site (imaging) (CT26 tumors [7]; protein p.t. 0.4 mg/kg then i.v. P-aPD-1, from 4 h post injection): strong tendency to accumulate at the tumor site
- coagulation in PDX tumor tissues (H&E) [8]: could induce coagulation in PDX tumor tissues without severe hemorrhage
- median survival time (CT26 subcutaneous tumor [9]): 30 days
- tumor growth inhibition (CT26 subcutaneous tumor [9]): negligible tumor-inhibiting activity
- FX activation activity [10]: dose-dependent FX activation activity
- median survival time (CT26 subcutaneous tumor [11]): 27 days
- coagulation / hemorrhage in tumors (CT26 tumor-bearing mice [12]): effectively triggered obvious coagulation without severe hemorrhage
